The target in experiment [1] is human SEZ6 on NTX tumor cells (human) (UniProt Q53EL9). As to the kind of experiment: flow cytometry dot plot of LU64 NTX tumor cells, CD324 against MOPC isotype control.
Experiment [2] shares this target. The experiment is described as follows: flow cytometry dot plot of LU86 NTX tumor cells, CD324 against MOPC isotype control.
For experiment [3] the target is unchanged. As to the kind of experiment: flow cytometry dot plot of LU117 NTX tumor cells, CD324 against MOPC isotype control.

In the case of MOPC (antibody), the % of cells in the upper right quadrant (CD324+, MOPC+) in experiment [1] stood at 0.597%; in experiment [2], 0.483%; in experiment [3] it was 0.347%. The same substance came in with a % of cells in the lower right quadrant (CD324-, MOPC+) in experiment [2] of 0.014%.

(Values after patent US20190022241A1.)
